Results: PMC11187563, “The importance of tyrosines in multimers of cyclic RGD nonapeptides: towards αvβ6-integrin targeted radiotherapeutics” (RSC Medicinal Chemistry, 2024)
Read-outs that look alike come from different tables or passages of the source.

Experiments:
[1] = Ex vivo biodistribution of 177Lu-labeled peptide tetramers in H2009 xenografted SCID mice; details: CB17 SCID, mouse, iv, total radioactivity, H2009 bearing SCID mice; for tissue uptake at 72 h / tissue to tissue ratio at 72 h: 70 pmol, 3 d p.i.; for tissue uptake at 1.5 h / tissue to tissue ratio at 1.5 h: 118 pmol, 90 min p.i.
Experimental: (§1) The biodistribution of the ^177Lu-labeled peptide conjugates was investigated in severe combined immunodeficiency (SCID) mice bearing subcutaneous xenografts of the αvβ6-integrin expressing human lung adenocarcinoma cell line H2009 on their right shoulders. Two representative time points after i.v. administration (p.i.) were evaluated.
(§2) Analytical HPLC was performed on a Shimadzu (Kyoto, Japan) Prominence HPLC system equipped with either a Dr. Maisch ReproSil Pur C18 AQ 150 × 4.6 mm, 5 μm, 120 Å (AC1) or a Phenomenex Kinetex C18 150 × 4.6 mm 5 μm column (AC2). Semipreparative HPLC was performed on a Shimadzu HPLC system equipped with either a Dr. Maisch ReproSil Pur C18 AQ 250 × 10 mm, 5 μm, 120 Å column with 5 mL min^−1 flow (PC1) or a Dr. Maisch ReproSil Pur C18 150 × 30 mm, 5 μm, 120 Å column with 20 mL min^−1 flow (PC2). Solvents for both systems were water (A) and acetonitrile (B) each supplemented with 0.1% (vol) trifluoroacetic acid (TFA). ESI-MS spectra (positive mode) were recorded on a Shimadzu LC-MS 2020 single quadrupol mass spectrometer. Solvents for MS applications were water (A) and acetonitrile (B) each supplemented with 0.1% (vol) formic acid. The other experimental procedures (determination of log D7.4, cultivation of H2009 human lung adenocarcinoma cells, generation of tumor xenografts in CB17 SCID mice, and biodistribution) were performed as described before.[28] All animal experiments have been carried out according to applicable law and institutional guidelines of Technical University of Munich, and were approved by the responsible local authority (Regierung von Oberbayern). The H2009 cells were regularly authenticated and tested for mycoplasma contamination. DOTPI-tetraazide,[43]FF (previously termed AvB6),[29]FY,[34] and YY (also referred to as Tyr2-alkyne)[36] were synthesized as described previously.

[2] = tested on: αvβ6-integrin expressing human lung adenocarcinoma cell line H2009 xenografts; assay: as above; details: H2009 bearing SCID mice
Experimental: as §1, §2

[3] = H2009 tumor, read-out: Tumor H2009 %IA/g
[4] = adrenals, read-out: Adrenals %IA/g
[5] = heart (myocard), read-out: Heart (myocard) %IA/g
[6] = kidneys, read-out: Kidneys %IA/g
[7] = large intestine (empty), read-out: Large intestine (empty) %IA/g
[8] = pancreas, read-out: Pancreas %IA/g
[9] = small intestine (empty), read-out: Small intestine (empty) %IA/g
[10] = stomach (empty), read-out: Stomach (empty) %IA/g
[11] = tumor/blood, read-out: tumor/organ ratio, Blood
[12] = tumor/heart (myocard), read-out: tumor/organ ratio, Heart (myocard)
[13] = tumor/liver, read-out: tumor/organ ratio, Liver
[14] = tumor/lung, read-out: tumor/organ ratio, Lung
[15] = tumor/pancreas, read-out: tumor/organ ratio, Pancreas
[16] = tumor/spleen, read-out: tumor/organ ratio, Spleen

## CC(C)C[C@@H]1NC(=O)[C@H](CC(=O)O)NC(=O)CNC(=O)[C@H](CCCNC(=N)N)NC(=O)[C@H](Cc2ccccc2)NC(=O)[C@H](CCCCNC(=O)CCC(=O)NCCCC[C@H](NC(=O)[C@H](Cc2ccccc2)NC(=O)CNC(=O)CCc2cn(CCCNC(=O)CCP(=O)(O)CN3CCN(CP(=O)(O)CCC(=O)NCCCn4cc(CCC(=O)NCC(=O)N[C@@H](Cc5ccccc5)C(=O)N[C@@H](CCCCNC(=O)CCC(=O)NCCCC[C@H]5C(=O)N[C@@H](Cc6ccccc6)C(=O)N[C@@H](CCCNC(=N)N)C(=O)NCC(=O)N[C@@H](CC(=O)O)C(=O)N[C@@H](CC(C)C)C(=O)N[C@@H](C)C(=O)N[C@@H](Cc6ccc(O)cc6)C(=O)N6CCC[C@@H]6C(=O)N5C)C(=O)O)nn4)CCN(CP(=O)(O)CCC(=O)NCCCn4cc(CCC(=O)NCC(=O)N[C@@H](Cc5ccccc5)C(=O)N[C@@H](CCCCNC(=O)CCC(=O)NCCCC[C@H]5C(=O)N[C@@H](Cc6ccccc6)C(=O)N[C@@H](CCCNC(=N)N)C(=O)NCC(=O)N[C@@H](CC(=O)O)C(=O)N[C@@H](CC(C)C)C(=O)N[C@@H](C)C(=O)N[C@@H](Cc6ccc(O)cc6)C(=O)N6CCC[C@@H]6C(=O)N5C)C(=O)O)nn4)CCN(CP(=O)(O)CCC(=O)NCCCn4cc(CCC(=O)NCC(=O)N[C@@H](Cc5ccccc5)C(=O)N[C@@H](CCCCNC(=O)CCC(=O)NCCCC[C@H]5C(=O)N[C@@H](Cc6ccccc6)C(=O)N[C@@H](CCCNC(=N)N)C(=O)NCC(=O)N[C@@H](CC(=O)O)C(=O)N[C@@H](CC(C)C)C(=O)N[C@@H](C)C(=O)N[C@@H](Cc6ccc(O)cc6)C(=O)N6CCC[C@@H]6C(=O)N5C)C(=O)O)nn4)CC3)nn2)C(=O)O)N(C)C(=O)[C@H]2CCCN2C(=O)[C@H](Cc2ccc(O)cc2)NC(=O)[C@H](C)NC1=O [Compound 177Lu-GFK-Y4, metal not drawn]
[1]; [3]
  tissue uptake at 72 h: 0.77 %ID/g
  tissue uptake at 1.5 h: 1.74 %ID/g
[1]; [4]
  tissue uptake at 72 h: 0.25 %ID/g
  tissue uptake at 1.5 h: 0.95 %ID/g
[1]; blood, read-out: Blood %IA/g
  tissue uptake at 72 h: 0.02 %ID/g
  tissue uptake at 1.5 h: 0.44 %ID/g
[1]; bone, read-out: Bone %IA/g
  tissue uptake at 72 h: 0.25 %ID/g
  tissue uptake at 1.5 h: 0.49 %ID/g
[1]; [5]
  tissue uptake at 72 h: 0.12 %ID/g
  tissue uptake at 1.5 h: 0.32 %ID/g
[1]; [6]
  tissue uptake at 72 h: 169 %ID/g
  tissue uptake at 1.5 h: 274 %ID/g
[1]; [7]
  tissue uptake at 72 h: 0.78 %ID/g
  tissue uptake at 1.5 h: 1.76 %ID/g
[1]; liver, read-out: Liver %IA/g
  tissue uptake at 72 h: 0.48 %ID/g
  tissue uptake at 1.5 h: 1.16 %ID/g
[1]; lung, read-out: Lung %IA/g
  tissue uptake at 72 h: 0.5 %ID/g
  tissue uptake at 1.5 h: 2.88 %ID/g
[1]; muscle, read-out: Muscle %IA/g
  tissue uptake at 72 h: 0.13 %ID/g
  tissue uptake at 1.5 h: 0.26 %ID/g
[1]; [8]
  tissue uptake at 72 h: 0.08 %ID/g
  tissue uptake at 1.5 h: 0.14 %ID/g
[1]; [9]
  tissue uptake at 72 h: 0.15 %ID/g
  tissue uptake at 1.5 h: 0.73 %ID/g
[1]; spleen, read-out: Spleen %IA/g
  tissue uptake at 72 h: 0.86 %ID/g
  tissue uptake at 1.5 h: 0.89 %ID/g
[1]; [10]
  tissue uptake at 72 h: 2.42 %ID/g
  tissue uptake at 1.5 h: 3.29 %ID/g
[1]; tumor / adrenals, read-out: tumor/organ ratio, Adrenals
  tissue to tissue ratio at 72 h: 3.7
[1]; tumor / bone, read-out: tumor/organ ratio, Bone
  tissue to tissue ratio at 72 h: 3.2
[1]; tumor / large intestine (empty), read-out: tumor/organ ratio, Large intestine (empty)
  tissue to tissue ratio at 72 h: 1.4
[1]; tumor / muscle, read-out: tumor/organ ratio, Muscle
  tissue to tissue ratio at 72 h: 6.9
[1]; tumor / small intestine (empty), read-out: tumor/organ ratio, Small intestine (empty)
  tissue to tissue ratio at 72 h: 5.6
[1]; tumor / stomach (empty), read-out: tumor/organ ratio, Stomach (empty)
  tissue to tissue ratio at 72 h: 0.4
[1]; tumor/adrenals, read-out: tumor/organ ratio, Adrenals
  tissue to tissue ratio at 1.5 h: 2.2
[1]; [11]
  tissue to tissue ratio at 72 h: 56.1
  tissue to tissue ratio at 1.5 h: 4.3
[1]; tumor/bone, read-out: tumor/organ ratio, Bone
  tissue to tissue ratio at 1.5 h: 3.6
[1]; [12]
  tissue to tissue ratio at 72 h: 6.9
  tissue to tissue ratio at 1.5 h: 5.5
[1]; tumor/large intestine (empty), read-out: tumor/organ ratio, Large intestine (empty)
  tissue to tissue ratio at 1.5 h: 1.1
[1]; [13]
  tissue to tissue ratio at 72 h: 2
  tissue to tissue ratio at 1.5 h: 1.7
[1]; [14]
  tissue to tissue ratio at 72 h: 1.8
  tissue to tissue ratio at 1.5 h: 0.6
[1]; tumor/muscle, read-out: tumor/organ ratio, Muscle
  tissue to tissue ratio at 1.5 h: 7.2
[1]; [15]
  tissue to tissue ratio at 72 h: 9.9
  tissue to tissue ratio at 1.5 h: 12.2
[1]; tumor/small intestine (empty), read-out: tumor/organ ratio, Small intestine (empty)
  tissue to tissue ratio at 1.5 h: 2.5
[1]; [16]
  tissue to tissue ratio at 72 h: 1
  tissue to tissue ratio at 1.5 h: 2.1
[1]; tumor/stomach (empty), read-out: tumor/organ ratio, Stomach (empty)
  tissue to tissue ratio at 1.5 h: 0.6
[2]; 90 min p.i.
  tumor/organ ratio, Kidneys: 0.0
[2]; 3 d p.i.
  tumor/organ ratio, Kidneys: 0.0
